What is called Kd is the free concentration of one partner at which half of the binding sites on the other are occupied at equilibrium, for simple one-to-one binding. High values mean lower affinity, low ones higher affinity.

Drawing on paper PMC4474532 (2015), this text covers Kd for two molecules.

The chains are these.
B2: BiP (natural protein)
chain: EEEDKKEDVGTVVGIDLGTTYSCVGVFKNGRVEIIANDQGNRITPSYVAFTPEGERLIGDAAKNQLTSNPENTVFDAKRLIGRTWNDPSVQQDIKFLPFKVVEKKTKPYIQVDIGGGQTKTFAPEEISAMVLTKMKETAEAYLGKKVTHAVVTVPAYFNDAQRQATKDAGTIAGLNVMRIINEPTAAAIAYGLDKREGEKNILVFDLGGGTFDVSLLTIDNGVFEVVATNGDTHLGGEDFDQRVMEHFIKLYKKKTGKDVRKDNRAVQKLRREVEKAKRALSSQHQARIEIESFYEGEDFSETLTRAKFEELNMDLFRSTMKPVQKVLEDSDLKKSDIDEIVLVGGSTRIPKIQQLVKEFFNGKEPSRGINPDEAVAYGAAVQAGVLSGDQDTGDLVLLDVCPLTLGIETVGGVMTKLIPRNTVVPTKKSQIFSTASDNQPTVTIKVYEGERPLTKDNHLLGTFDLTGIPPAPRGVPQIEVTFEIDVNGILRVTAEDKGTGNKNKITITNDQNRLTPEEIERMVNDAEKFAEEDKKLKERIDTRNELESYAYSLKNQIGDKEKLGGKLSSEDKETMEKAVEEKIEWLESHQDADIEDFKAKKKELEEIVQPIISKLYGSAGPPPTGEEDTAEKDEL

Common to all, as to assay: MST
Test [1] deals with B2.
The target in test [2] is PERK luminal domain A378N (human, UniProt Q9NZJ5 105-403, A378N).
In test [3] the target is PERK luminal domain L395N (human, UniProt Q9NZJ5 105-403, L395N).

B1: human PERK luminal domain (residues 105–403) (domain or fragment)
chain: LVIISTLDGRIAALDPENHGKKQWDLDVGSGSLVSSSLSKPEVFGNKMIIPSLDGALFQWDQDRESMETVPFTVESLLESSYKFGDDVVLVGGKSLTTYGLSAYSGKVRYICSALGCRQWDSDEMEQEEDILLLQRTQKTVRAVGPRSGNEKWNFSVGHFELRYIPDMETRAGFIESTFKPNENTEESKIISDVEEQEAAIMDIVIKVSVADWKVMAFSKKGGHLEWEYQFCTPIASAWLLKDGKVIPISLFDDTSYTSNDDVLEDEEDIVEAARGATENSVYLGMYRGQLYLQSSVRI
In turn, B1 showed a Kd in test [1] of 2 µM. With B2, the Kd in test [2] came to 2.3 µM; in test [3], 1.8 µM.
